{
  "source": "patent US20250257130A1",
  "about": "(NONA BIOSCIENCES SUZHOU, published 2025)",
  "binders": {"B1": {"name": "PR000374 (antibody, human IgG1, kappa, V domains shown)", "VH": "EVQLVESGGGLVQPGRSLRLSCTASGSDINDYPITWVRQAPGQGLEWIGFINSGGSTWYASWVKGRFTISRDDSKSIAYLQMNSLKTEDTAVYYCARGYSTYYRDFNIWGQGTLVTVSS", "VL": "DIQMTQSPSSLSASVGDRVTINCQASQSIDSNLAWFQQKPGQPPKLLIYRASNLASGVPDRFSGSGSGTDFTLTISSLEAEDVATYYCLGGVGAVSYRTSFGGGTKVEIKR", "notes": "positive control; also called Bench marker 1"}},
  "key": {"[1]": {"molecular_target": "T1, human ROR1 on cells (HEK293T-hROR1, PANC-1, A549) (human, UniProt Q01973 30-937)", "T1 construct": "whole, on cells; one molecule for the three cell lines; also called huROR1; cell surface ROR1", "T1 sequence (Q01973 30-937)": "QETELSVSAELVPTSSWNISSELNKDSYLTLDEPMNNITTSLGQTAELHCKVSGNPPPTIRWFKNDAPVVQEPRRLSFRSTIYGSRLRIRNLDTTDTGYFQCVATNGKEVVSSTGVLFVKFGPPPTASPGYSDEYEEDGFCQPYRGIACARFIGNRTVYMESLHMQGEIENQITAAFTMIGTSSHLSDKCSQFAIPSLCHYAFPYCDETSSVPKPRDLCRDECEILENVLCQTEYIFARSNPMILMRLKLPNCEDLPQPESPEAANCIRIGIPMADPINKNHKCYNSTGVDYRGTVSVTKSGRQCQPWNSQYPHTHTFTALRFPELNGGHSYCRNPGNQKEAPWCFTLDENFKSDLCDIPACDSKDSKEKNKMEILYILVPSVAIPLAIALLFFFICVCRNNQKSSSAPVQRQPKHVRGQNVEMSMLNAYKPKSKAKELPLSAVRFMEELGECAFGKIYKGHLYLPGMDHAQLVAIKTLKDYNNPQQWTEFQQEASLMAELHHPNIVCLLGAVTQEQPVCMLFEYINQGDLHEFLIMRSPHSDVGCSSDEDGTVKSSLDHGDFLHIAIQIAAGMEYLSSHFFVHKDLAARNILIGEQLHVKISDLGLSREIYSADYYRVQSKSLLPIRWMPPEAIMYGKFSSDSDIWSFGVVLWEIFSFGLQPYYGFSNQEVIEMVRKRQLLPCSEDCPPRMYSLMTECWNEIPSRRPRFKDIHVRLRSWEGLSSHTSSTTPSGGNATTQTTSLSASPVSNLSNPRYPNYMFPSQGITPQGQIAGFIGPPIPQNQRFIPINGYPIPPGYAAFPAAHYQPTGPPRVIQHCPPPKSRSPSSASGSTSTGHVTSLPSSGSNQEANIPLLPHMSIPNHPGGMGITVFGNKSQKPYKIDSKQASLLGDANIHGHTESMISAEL", "assay": "flow cytometry on PANC-1 cells, MFI (FITC-A Median)", "protocol": "(§1) Binding of recombinant anti-ROR1 antibodies to human or cynomolgus ROR1-overexpressing cells was tested by flow cytometry. In this example, ROR1-expressing cell lines are HEK293T cell lines that had been transfected to express human ROR1 on the surface (HEK293T-hu ROR1, KYINNO BIOTECHNOLOGY CO., LTD, Catalog #KC-1018), CHO-K1 cell lines that had been transfected to express cynomolgus ROR1 (CHOK1-cyno ROR1), PANC-1 (ATCC, catalog: CRL-1469) or A549 cell lines (Shanghai Institute of Biochemistry and Cell Biology, Chinese Academy of Sciences).\n(§2) In brief, anti-ROR1 antibodies were serially diluted in staining buffer (PBS containing 2% FBS). Antibody solution was incubated with 1×10⁵ cells at 4° C. for 1 hour. […] After 1-hour incubation at 4° C., cells were washed twice with staining buffer and subjected to flow cytometry. PR000374 (Bench marker 1) and non-relevant IgG isotype control (Crownbio) were used as positive and negative controls, respectively."}, "[2]": {"molecular_target": "T2, Human ROR1-ECD-his (Acro Biosystems RO1-H522y) (human, UniProt Q01973 30-406)", "T2 construct": "extracellular domain; bought protein; also called hROR1-ECD-his; hu-ROR1-ECD-his", "T2 sequence (Q01973 30-406)": "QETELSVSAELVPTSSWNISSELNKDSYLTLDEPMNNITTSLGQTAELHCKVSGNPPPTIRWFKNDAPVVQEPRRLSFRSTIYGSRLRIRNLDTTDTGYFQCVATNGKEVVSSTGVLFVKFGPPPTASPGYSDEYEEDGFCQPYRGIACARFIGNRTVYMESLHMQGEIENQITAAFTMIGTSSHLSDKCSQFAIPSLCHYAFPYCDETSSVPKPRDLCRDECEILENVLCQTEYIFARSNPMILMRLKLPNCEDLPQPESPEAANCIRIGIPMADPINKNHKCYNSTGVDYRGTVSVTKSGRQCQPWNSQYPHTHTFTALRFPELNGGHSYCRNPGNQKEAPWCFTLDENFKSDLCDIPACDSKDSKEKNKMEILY", "assay": "BLI in-tandem, row = 1st Ab; competitor (2nd Ab): PR005338", "source_text": "To determine if anti-ROR1 antibodies bind to human ROR1 on different or approximate binding epitopes, the ForteBio Octet® RED96e platform was used to perform epitope competition experiments on the anti-ROR1 antibodies. Human ROR1 protein (Acrobiosystems, #RO1-H522y) was biotinylated and then captured onto SA biosensors (ForteBio, #18-5020) to reach loading level of 0.3-0.4 nm. The in-tandem competition assay format was applied and it contains two association steps. Firstly, the antigen-loaded biosensors bind to each antibody (a.k.a, First antibody, 1st Ab) with a saturating concentration of 200 nM for 180 seconds to reach equilibrium and then secondly bind to the competing antibodies (a.k.a, Second antibody, 2nd Ab) of 200 nM for 180 seconds. The second binding signals were recorded as the 100% signal of each antibody when the first antibodies were replaced by kinetics buffer. All the binding data were analyzed using ForteBio Data Analysis 11.0 software. The inhibition rate is calculated by the following formula: […]"}, "[3]": {"molecular_target": "T3, cynomolgus ROR1 on CHO-K1-cynoROR1 cells (cynomolgus monkey, UniProt A0A2K5WTX7 30-937)", "T3 construct": "whole, on cells", "assay": "flow cytometry on CHOK1-cynoROR1 cells, MFI (APC-A Median) [top panel]", "protocol": "as §1, §2"}},
  "data": [
    {"binder": "B1", "values": [
      {"measurement": "EC50 (read off the curve)", "setting": "[1]", "result": "~8", "unit": "nM"},
      {"measurement": "Inhibition (%)", "setting": "[2]", "result": -7.76, "unit": "%"},
      {"measurement": "EC50 (read off the curve)", "setting": "[3]", "result": "~5", "unit": "nM"}
    ]}
  ]
}
